Results as given in patent US20240109955A1.
Where a chain is given by its changes, count along the chain named.

B1: MX1021 (bispecific antibody)
chain: QTVVTQEPSFSVSPGGTVTLTCGLSSGSVSTAYFPSWYQQTPGQAPRTLIYGTNTRSSGVPDRFSGSILGNKAALTITGAQADDESDYYCVLYMGRGIVVFGGGTKLTVLGGSSGEIVMTQSPAILSVSPGERATLSCRASQSVAINLAWYQQKPGQAPRLLIYAASSRATGIPGRFSGSGSETNFTLTISSLQSGDFAVYYCQQYITWPPSYTFGQGTKLEIKGGGGSGGSGSGGGGSASGSGEVQLVESGGALIQPGGSLRLSCAASGIIVSANYMSWVRQAPGKGLEWVSVIYSGGSTFYADSVKGRFTISRDNSKNTLYLEMNSLRAEDTAVYYCARDAPILGVSDWGQGTLVTVSSGGSSGQVQLVESGGGVVQPGRSLRLSCAASGFTLSSYGMHWVRQAPGKGLEWVAVISYDGSNKYYVDSVKGRFTISRDNSKNTLYLQMNSLRAEDTAVYYCRWAYWELLPDYYYGMDVWGQGTTVTVSSASGGSGDKTHTCPPCPAPELLGGPSVFLFPPKPKDTLMISRTPEVTCVVVDVSHEDPEVKFNWYVDGVEVHNAKTKPREEQYNSYVVSVLTVLHQDWLNGKEYKCKVSNKALPAPIEKTISKAKGQPREPQVYTLPPSRDELTKNQVSLTCLVKGFYPSDIAVEWESNGQPENNYKTTPPVLDSDGSFFKKLTVDKSRWQQGNVFSCSVLHEALHSHYTQKSLSLSPG
B2: MX1022 (bispecific antibody)
chain: DTVMTQSPLSLPVTPGEPASISCRSSQSLLNSNGYNYLDWYVQKPGQSPQLLIYLGSNRASGVPDRFSGSGSGTDFTLKISRVEAEDVGVYYCMQPLQTPLFTFGPGTKVEIKGGSSGEIVMTQSPAILSVSPGERATLSCRASQSVAINLAWYQQKPGQAPRLLIYAASSRATGIPGRFSGSGSETNFTLTISSLQSGDFAVYYCQQYITWPPSYTFGQGTKLEIKGGGGSGGSGSGGGGSASGSGEVQLVESGGALIQPGGSLRLSCAASGIIVSANYMSWVRQAPGKGLEWVSVIYSGGSTFYADSVKGRFTISRDNSKNTLYLEMNSLRAEDTAVYYCARDAPILGVSDWGQGTLVTVSSGGSSGQVTLRESGPALVKPTQTLTLTCTFSGFSLSTRGVCVSWIRQPPGKALEWLAFIDWDDDKYYNTSLKTRLTISKDTSKNQVVLTMTNVHPVDTATYYCARISSHHGSSWCTTFDYWGQGALVTVSAASGGSGDKTHTCPPCPAPELLGGPSVFLFPPKPKDTLMISRTPEVTCVVVDVSHEDPEVKFNWYVDGVEVHNAKTKPREEQYNSYVVSVLTVLHQDWLNGKEYKCKVSNKALPAPIEKTISKAKGQPREPQVYTLPPSRDELTKNQVSLTCLVKGFYPSDIAVEWESNGQPENNYKTTPPVLDSDGSFFKKLTVDKSRWQQGNVFSCSVLHEALHSHYTQKSLSLSPG
B3: MX1070 (protein)
chain 1: QTVVTQEPSFSVSPGGTVTLTCGLSSGSVSTAYFPSWYQQTPGQAPRTLIYGTNTRSSGVPDRFSGSILGNKAALTITGAQADDESDYYCVLYMGRGIVVFGGGTKLTVLGGSSGEIVLTQSPGTLSLSPGETATLSCRASQSFSSDLAWYQQKPGQAPRLLIYGASSRATGIPDRFSGSGSGTDFTLTISRLEPADFAVYYCQQYGSSPPVTFGGGTKVEIKGGGGSGGSGSGGGGSASGSGEVQLVESGGGLIQPGGSLRLSCAASGVIVSYNYMNWVRQAPGKGLEWVSVIYSGGSTFYADSVRGRFTISRDNSKNTLYLQMNSLRAEDTAVYYCARDLGPAGAFDIWGLGTMVTVSSGGSSGQVQLVESGGGVVQPGRSLRLSCAASGFTLSSYGMHWVRQAPGKGLEWVAVISYDGSNKYYVDSVKGRFTISRDNSKNTLYLQMNSLRAEDTAVYYCRWAYWELLPDYYYGMDVWGQGTTVTVSSASGGSGDKTHTCPPCPAPELLGGPSVFLFPPKPKDTLMISRTPEVTCVVVDVSHEDPEVKFNWYVDGVEVHNAKTKPREEQYNSYVVSVLTVLHQDWLNGKEYKCKVSNKALPAPIEKTISKAKGQPREPQVYTLPPCRDELTKNQVSLWCLVKGFYPSDIAVEWESNGQPENNYKTTPPVLDSDGSFFKKLTVDKSRWQQGNVFSCSVLHEALHSHYTQKSLSLSPG
chain 2: DTVMTQSPLSLPVTPGEPASISCRSSQSLLNSNGYNYLDWYVQKPGQSPQLLIYLGSNRASGVPDRFSGSGSGTDFTLKISRVEAEDVGVYYCMQPLQTPLFTFGPGTKVEIKGGSSGEIVLTQSPGTLSLSPGETATLSCRASQSFSSDLAWYQQKPGQAPRLLIYGASSRATGIPDRFSGSGSGTDFTLTISRLEPADFAVYYCQQYGSSPPVTFGGGTKVEIKGGGGSGGSGSGGGGSASGSGEVQLVESGGGLIQPGGSLRLSCAASGVIVSYNYMNWVRQAPGKGLEWVSVIYSGGSTFYADSVRGRFTISRDNSKNTLYLQMNSLRAEDTAVYYCARDLGPAGAFDIWGLGTMVTVSSGGSSGQVTLRESGPALVKPTQTLTLTCTFSGFSLSTRGVCVSWIRQPPGKALEWLAFIDWDDDKYYNTSLKTRLTISKDTSKNQVVLTMTNVHPVDTATYYCARISSHHGSSWCTTFDYWGQGALVTVSAASGGSGDKTHTCPPCPAPELLGGPSVFLFPPKPKDTLMISRTPEVTCVVVDVSHEDPEVKFNWYVDGVEVHNAKTKPREEQYNSYVVSVLTVLHQDWLNGKEYKCKVSNKALPAPIEKTISKAKGQPREPQVCTLPPSRDELTKNQVSLSCAVKGFYPSDIAVEWESNGQPENNYKTTPPVLDSDGSFFLVSKLTVDKSRWQQGNVFSCSVLHEALHSHYTQKSLSLSPG
B4: MX1073 (protein)
chain 1: B3 chain 1
chain 2: QTVVTQEPSFSVSPGGTVTLTCGLSSGSVSTAYFPSWYQQTPGQAPRTLIYGTNTRSSGVPDRFSGSILGNKAALTITGAQADDESDYYCVLYMGRGIVVFGGGTKLTVLGGSSGDTVMTQSPLSLPVTPGEPASISCRSSQSLLNSNGYNYLDWYVQKPGQSPQLLIYLGSNRASGVPDRFSGSGSGTDFTLKISRVEAEDVGVYYCMQPLQTPLFTFGPGTKVEIKGGGGSGGSGSGGGGSASGSGQVTLRESGPALVKPTQTLTLTCTFSGFSLSTRGVCVSWIRQPPGKALEWLAFIDWDDDKYYNTSLKTRLTISKDTSKNQVVLTMTNVHPVDTATYYCARISSHHGSSWCTTFDYWGQGALVTVSAGGSSGQVQLVESGGGVVQPGRSLRLSCAASGFTLSSYGMHWVRQAPGKGLEWVAVISYDGSNKYYVDSVKGRFTISRDNSKNTLYLQMNSLRAEDTAVYYCRWAYWELLPDYYYGMDVWGQGTTVTVSSASGGSGDKTHTCPPCPAPELLGGPSVFLFPPKPKDTLMISRTPEVTCVVVDVSHEDPEVKFNWYVDGVEVHNAKTKPREEQYNSYVVSVLTVLHQDWLNGKEYKCKVSNKALPAPIEKTISKAKGQPREPQVCTLPPSRDELTKNQVSLSCAVKGFYPSDIAVEWESNGQPENNYKTTPPVLDSDGSFFLVSKLTVDKSRWQQGNVFSCSVLHEALHSHYTQKSLSLSPG
B5: MX1041 (bispecific antibody)
chain: B3 chain 1 with C628S, W640T

Key:
Test in all cases: cell-based or functional assay
[1] = target: SARS-CoV-2 Omicron variant BQ.1.1 spike protein (SARS-CoV-2)
[2] = target: SARS-CoV-2 Omicron variant BA.4/5 spike protein (SARS-CoV-2)
[3] = target: SARS-CoV-2 Omicron variant BQ.1 spike protein (SARS-CoV-2)
[4] = target: SARS-CoV-2 Omicron variant BF.7 spike protein (SARS-CoV-2)
[5] = target: SARS-CoV-2 Delta variant spike protein (SARS-CoV-2)
[6] = target: SARS-CoV-2 Omicron variant XBB spike protein (SARS-CoV-2)
[7] = target: SARS-CoV-2 Omicron variant BA.2.75.2 spike protein (SARS-CoV-2)
[8] = target: SARS-CoV-2 Omicron variant BA.4.6 spike protein (SARS-CoV-2)
[9] = target: SARS-CoV-2 Omicron variant B.1.1.529 spike protein (SARS-CoV-2)
[10] = target: SARS-CoV-2 spike protein, Omicron variant XBB (SARS-CoV-2)
[11] = target: SARS-CoV-2 spike protein, Omicron variant BQ.1 (SARS-CoV-2)
[12] = target: SARS-CoV-2 spike protein, Omicron variant BA.4/5 (SARS-CoV-2)
[13] = target: SARS-CoV-2 spike protein, Omicron variant BA.2.75.2 (SARS-CoV-2)
[14] = target: SARS-CoV-2 spike protein, Omicron variant BQ.1.1 (SARS-CoV-2)

Row | Binder | IC50, pseudovirus neutralization [1] [ng/mL] | IC80, pseudovirus neutralization [1] [ng/mL] | IC50, pseudovirus neutralization [2] [ng/mL] | IC80, pseudovirus neutralization [2] [ng/mL] | IC50, pseudovirus neutralization [3] [ng/mL] | IC80, pseudovirus neutralization [3] [ng/mL] | IC50, pseudovirus neutralization [4] [ng/mL] | IC80, pseudovirus neutralization [4] [ng/mL] | IC50, pseudovirus neutralization [5] [ng/mL] | IC80, pseudovirus neutralization [5] [ng/mL] | IC50, pseudovirus neutralization [6] [ng/mL] | IC80, pseudovirus neutralization [6] [ng/mL] | IC50, pseudovirus neutralization [7] [ng/mL] | IC80, pseudovirus neutralization [7] [ng/mL] | IC50, pseudovirus neutralization [8] [ng/mL] | IC80, pseudovirus neutralization [8] [ng/mL] | IC50, pseudovirus neutralization [9] [ng/mL] | IC80, pseudovirus neutralization [9] [ng/mL] | IC50, pseudovirus neutralization [10] [ng/mL] | IC80, pseudovirus neutralization [10] [ng/mL] | also measured
1 | B1 | 2.77 | 28.5 | 13.8 | 26 | 11.3 | 51.9 | 11.3 | 31.7 | 64.8 | 219 | 14.7 | 61.1 | 3.73 | 13.2 | 12.9 | 41.4 | 2.91 | 13.1 |  |  | 
2 | B2 | 1.13 | 6.72 | 1.98 | 3.33 | 6.58 | 19.2 | 2.38 | 8.29 | 31.5 | 25.4 | 5.85 | 12.4 | 0.89 | 2.8 | 4.9 | 8.82 | 4.22 | 4.74 |  |  | 
3 | B3 |  |  |  |  |  |  |  |  |  |  |  |  |  |  |  |  |  |  | 2.9 | 9.71 | IC50, pseudovirus neutralization [11]: 4.64 ng/mL; IC80, pseudovirus neutralization [11]: 9.16 ng/mL; IC50, pseudovirus neutralization [12]: 2.49 ng/mL; IC80, pseudovirus neutralization [12]: 3.58 ng/mL; IC50, pseudovirus neutralization [13]: 2.4 ng/mL; IC80, pseudovirus neutralization [13]: 4.16 ng/mL; IC50, pseudovirus neutralization [14]: 4.06 ng/mL; IC80, pseudovirus neutralization [14]: 11 ng/mL
4 | B4 |  |  |  |  |  |  |  |  |  |  |  |  |  |  |  |  |  |  | 9.3 | 24 | IC50, pseudovirus neutralization [11]: 1.9 ng/mL; IC80, pseudovirus neutralization [11]: 10.8 ng/mL; IC50, pseudovirus neutralization [12]: 2.78 ng/mL; IC80, pseudovirus neutralization [12]: 4.28 ng/mL; IC50, pseudovirus neutralization [13]: 1.81 ng/mL; IC80, pseudovirus neutralization [13]: 3.35 ng/mL; IC50, pseudovirus neutralization [14]: 5.77 ng/mL; IC80, pseudovirus neutralization [14]: 24.1 ng/mL
5 | B5 |  |  |  |  |  |  |  |  | 29.1 | 48.5 |  |  |  |  |  |  | 4.14 | 8.81 |  |  | 
